Laboratory results reported in publication PMC10786891, “Massively parallel profiling of RNA-targeting CRISPR-Cas13d”.
Changes are numbered by the printed parent chain. Numbers in names are those of the source.

T1: EsCas13d, nuclease-dead (Eubacterium siraeum, UniProt B0MS50, R295A;H300A;R849A;H854A)
T1 sequence: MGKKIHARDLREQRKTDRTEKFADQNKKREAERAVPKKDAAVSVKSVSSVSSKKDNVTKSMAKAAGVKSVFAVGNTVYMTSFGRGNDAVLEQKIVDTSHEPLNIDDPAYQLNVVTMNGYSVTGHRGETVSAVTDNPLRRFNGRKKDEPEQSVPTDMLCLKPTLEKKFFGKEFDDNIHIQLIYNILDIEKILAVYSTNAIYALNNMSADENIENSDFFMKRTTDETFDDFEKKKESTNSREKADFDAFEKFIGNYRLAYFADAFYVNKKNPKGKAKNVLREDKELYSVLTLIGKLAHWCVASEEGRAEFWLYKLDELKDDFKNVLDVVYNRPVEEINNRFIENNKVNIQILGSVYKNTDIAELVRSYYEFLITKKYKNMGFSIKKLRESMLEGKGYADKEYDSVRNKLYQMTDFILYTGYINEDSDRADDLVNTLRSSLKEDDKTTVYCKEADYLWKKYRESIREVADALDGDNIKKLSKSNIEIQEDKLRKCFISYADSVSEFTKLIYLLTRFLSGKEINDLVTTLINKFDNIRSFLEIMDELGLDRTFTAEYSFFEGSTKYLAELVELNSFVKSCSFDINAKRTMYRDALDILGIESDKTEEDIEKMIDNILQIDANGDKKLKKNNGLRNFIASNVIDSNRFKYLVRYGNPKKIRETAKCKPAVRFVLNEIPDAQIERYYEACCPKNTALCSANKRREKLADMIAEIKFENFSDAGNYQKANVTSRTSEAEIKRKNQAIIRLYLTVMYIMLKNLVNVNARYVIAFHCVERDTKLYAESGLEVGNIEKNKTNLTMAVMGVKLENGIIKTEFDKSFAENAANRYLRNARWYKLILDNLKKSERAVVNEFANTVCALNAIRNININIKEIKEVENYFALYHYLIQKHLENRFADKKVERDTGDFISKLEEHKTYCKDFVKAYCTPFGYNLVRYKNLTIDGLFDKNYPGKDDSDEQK

B1: target 1 insU 3' of 13,insA 3' of 12 (mixed)
RNA 1: CACCCGUGCAAAAAUGCAGGGGUCUAAAACUGAGCGGAUAACCUCUCUAUGG
RNA 2: GGGAAUGGAUCCACAUCUACGAAUUCGUACCAUAGAGAGUGAUUAUCCGCUCACCGAGAUCGGAAGAGCACACGU
B2: target 1 G12U,G13C (mixed)
RNA 1: B1 RNA 1
RNA 2: GGGAAUGGAUCCACAUCUACGAAUUCGUACCAUAGAGACUUUAUCCGCUCACCGAGAUCGGAAGAGCACACGU
B3: target 1 C4G,U10G (mixed)
RNA 1: B1 RNA 1
RNA 2: B2 RNA 2 with C39G, U40G, U42G, C48G
B4: target 1 insA 3' of 22,insA 3' of 15 (mixed)
RNA 1: B1 RNA 1
RNA 2: GGGAAUGGAUCCACAUCUACGAAUUCGUACACAUAGAGAAGGUUAUCCGCUCACCGAGAUCGGAAGAGCACACGU
B5: target 1 insU 3' of 17,insU 3' of 2 (mixed)
RNA 1: B1 RNA 1
RNA 2: GGGAAUGGAUCCACAUCUACGAAUUCGUACCAUAGUAGAGGUUAUCCGCUCUACCGAGAUCGGAAGAGCACACGU
B6: target 1 C7G,U19G (mixed)
RNA 1: B1 RNA 1
RNA 2: B2 RNA 2 with U33G, C39G, U40G, C45G
B7: target 1 C4U,C6A (mixed)
RNA 1: B1 RNA 1
RNA 2: B2 RNA 2 with C39G, U40G, C46A, C48U
B8: target 1 C7G,G12U (mixed)
RNA 1: B1 RNA 1
RNA 2: B2 RNA 2 with C39G, C45G
B9: target 1 G13C,A14G (mixed)
RNA 1: B1 RNA 1
RNA 2: B2 RNA 2 with A38G, U40G
B10: target 1 insU 3' of 5,insA 3' of 5 (mixed)
RNA 1: B1 RNA 1
RNA 2: B1 RNA 2 with U40G, G41U, A42U, U43A, A45C, U46C, C47G, C48U, G49A
B11: target 1 insU 3' of 14,insG 3' of 9 (mixed)
RNA 1: B1 RNA 1
RNA 2: B1 RNA 2 with G39U, U40G, A42U, U44A, A45G
B12: target 1 U10A,U19C (mixed)
RNA 1: B1 RNA 1
RNA 2: B2 RNA 2 with U33C, C39G, U40G, U42A
B13: target 1 del3,del13 (mixed)
RNA 1: B1 RNA 1
RNA 2: GGGAAUGGAUCCACAUCUACGAAUUCGUACCAUAGAGAGUUAUCCGCCACCGAGAUCGGAAGAGCACACGU
B14: target 1 G17U,A18U (mixed)
RNA 1: B1 RNA 1
RNA 2: B2 RNA 2 with A34U, G35U, C39G, U40G
B15: target 1 insU 3' of 13,insA 3' of 5 (mixed)
RNA 1: B1 RNA 1
RNA 2: B1 RNA 2 with A42U, U44A, A45U, U46C, C48G, G49A
B16: target 1 U8A,G12C (mixed)
RNA 1: B1 RNA 1
RNA 2: B2 RNA 2 with C39G, U40C, U44A
B17: target 1 insC 3' of 18,insG 3' of 6 (mixed)
RNA 1: B1 RNA 1
RNA 2: B5 RNA 2 with G35C, U36G, C49G, U50C, C51U, U52C
B18: target 1 C7G,U11C (mixed)
RNA 1: B1 RNA 1
RNA 2: B2 RNA 2 with C39G, U40G, U41C, C45G
B19: target 1 C2A,A20U (mixed)
RNA 1: B1 RNA 1
RNA 2: B2 RNA 2 with A32U, C39G, U40G, C50A
B20: target 1 A16G,A18U (mixed)
RNA 1: B1 RNA 1
RNA 2: B2 RNA 2 with A34U, A36G, C39G, U40G
B21: target 1 U3C,A9G (mixed)
RNA 1: B1 RNA 1
RNA 2: B2 RNA 2 with C39G, U40G, A43G, U49C
B22: target 1 A9C,A20U (mixed)
RNA 1: B1 RNA 1
RNA 2: B2 RNA 2 with A32U, C39G, U40G, A43C
B23: target 1 insA 3' of 21,insA 3' of 17 (mixed)
RNA 1: B1 RNA 1
RNA 2: B4 RNA 2 with A31C, C32A, G38A, A39G
B24: target 1 complement block 4-14 (mixed)
RNA 1: B1 RNA 1
RNA 2: GGGAAUGGAUCCACAUCUACGAAUUCGUACCAUAGAGUCCAAUAGGCGUCACCGAGAUCGGAAGAGCACACGU
B25: target 1 insG 3' of 22,insC 3' of 20 (mixed)
RNA 1: B1 RNA 1
RNA 2: B4 RNA 2 with A31G, U34C, A35U, G36A, A37G, G38A, A39G
B26: target 1 insU 3' of 7,insU 3' of 1 (mixed)
RNA 1: B1 RNA 1
RNA 2: GGGAAUGGAUCCACAUCUACGAAUUCGUACCAUAGAGAGGUUAUCUCGCUCAUCCGAGAUCGGAAGAGCACACGU
B27: target 1 insG 3' of 8,insC 3' of 5 (mixed)
RNA 1: B1 RNA 1
RNA 2: B26 RNA 2 with C45G, U46C, U50C, C51U, A52C, U53A
B28: target 1 insA 3' of 8,insC 3' of 5 (mixed)
RNA 1: B1 RNA 1
RNA 2: B26 RNA 2 with C45A, U46C, U50C, C51U, A52C, U53A
B29: target 1 U3A,A9U (mixed)
RNA 1: B1 RNA 1
RNA 2: B2 RNA 2 with C39G, U40G, A43U, U49A
B30: target 1 insG 3' of 10,insG 3' of 7 (mixed)
RNA 1: B1 RNA 1
RNA 2: B1 RNA 2 with U40G, G41U, A42U, U43G, U44A, A45U, U46C, C47G
B31: target 1 insA 3' of 4,insG 3' of 3 (mixed)
RNA 1: B1 RNA 1
RNA 2: B26 RNA 2 with U46C, C47G, G48C, C49A, C51G, A52C, U53A
B32: target 1 insG 3' of 9,insG 3' of 6 (mixed)
RNA 1: B1 RNA 1
RNA 2: B26 RNA 2 with U44G, C45U, U46C, C49G, U50C, C51U, A52C, U53A
B33: target 1 insG 3' of 22,insU 3' of 18 (mixed)
RNA 1: B1 RNA 1
RNA 2: B4 RNA 2 with A31G, G36U, A37G, G38A, A39G
B34: target 1 U3C,U11C (mixed)
RNA 1: B1 RNA 1
RNA 2: B2 RNA 2 with C39G, U40G, U41C, U49C

Target: T1, EsCas13d, nuclease-dead
Assay: crRNA (strand 1, pre-loaded); Mg2+; 40 mM Tris-HCl pH 7.5, 150 mM NaCl, 6 mM MgCl2, 1 mM DTT, 0.1% Tween-20, 0.2 mg/ml BSA; 25 C; 10 min per concentration, then washed
Conditions: tags: His6-TwinStrep-SUMO cleaved; N-terminal SNAP kept (SNAP-Surface 488); label: 3' end held by stalled T7 RNA polymerase

Row | Binder | Kd [nM]
1 | B1 | 10.1 ± 0.7
2 | B2 | 17.5 ± 1.3
3 | B3 | 13.6 ± 0.5
4 | B4 | 7.9 ± 0.4
5 | B5 | 15.1 ± 2.2
6 | B6 | 34 ± 10
7 | B7 | 7.52 ± 0.33
8 | B8 | 14.3 ± 1.1
9 | B9 | 31 ± 5
10 | B10 | 13.9 ± 0.6
11 | B11 | 28.2 ± 2.9
12 | B12 | 35 ± 4
13 | B13 | 7.9 ± 0.4
14 | B14 | 29.8 ± 2.8
15 | B15 | 15.7 ± 2.7
16 | B16 | 16.5 ± 1.2
17 | B17 | 58 ± 10

Row | Binder | Kd [nM]
18 | B18 | 14.6 ± 0.6
19 | B19 | 30.1 ± 1.5
20 | B20 | 86 ± 13
21 | B21 | 30.5 ± 3.2
22 | B22 | 80 ± 40
23 | B23 | 41 ± 5
24 | B24 | 63 ± 31
25 | B25 | 8.4 ± 0.7
26 | B26 | 18.4 ± 0.9
27 | B27 | 10.2 ± 0.4
28 | B28 | 9.4 ± 0.6
29 | B29 | 10.8 ± 0.9
30 | B30 | 12.5 ± 0.6
31 | B31 | 6.5 ± 0.4
32 | B32 | 11.2 ± 1.2
33 | B33 | 74 ± 18
34 | B34 | 51 ± 8
